Here are results for three sequences from article PMC6548965.

pKd: −log10 of the molar value.

Sequence of AP heterodimer (IAP/PLAP) on LoVo cells (human) (P09923 20-503, chain 1 of 2): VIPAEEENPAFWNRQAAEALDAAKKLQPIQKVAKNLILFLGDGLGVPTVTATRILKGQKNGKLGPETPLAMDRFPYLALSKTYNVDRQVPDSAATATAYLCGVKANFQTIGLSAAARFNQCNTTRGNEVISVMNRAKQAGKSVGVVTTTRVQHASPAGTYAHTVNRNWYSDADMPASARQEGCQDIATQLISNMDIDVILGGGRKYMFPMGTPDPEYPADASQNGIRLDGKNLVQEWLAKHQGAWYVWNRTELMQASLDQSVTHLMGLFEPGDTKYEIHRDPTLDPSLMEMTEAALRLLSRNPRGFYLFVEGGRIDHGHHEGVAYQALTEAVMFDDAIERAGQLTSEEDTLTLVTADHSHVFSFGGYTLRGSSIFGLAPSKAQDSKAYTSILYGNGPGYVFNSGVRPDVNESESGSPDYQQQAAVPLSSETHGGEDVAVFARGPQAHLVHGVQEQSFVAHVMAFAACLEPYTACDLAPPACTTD
Sequence of AP heterodimer (IAP/PLAP) on LoVo cells (human) (P05187 23-506, chain 2 of 2): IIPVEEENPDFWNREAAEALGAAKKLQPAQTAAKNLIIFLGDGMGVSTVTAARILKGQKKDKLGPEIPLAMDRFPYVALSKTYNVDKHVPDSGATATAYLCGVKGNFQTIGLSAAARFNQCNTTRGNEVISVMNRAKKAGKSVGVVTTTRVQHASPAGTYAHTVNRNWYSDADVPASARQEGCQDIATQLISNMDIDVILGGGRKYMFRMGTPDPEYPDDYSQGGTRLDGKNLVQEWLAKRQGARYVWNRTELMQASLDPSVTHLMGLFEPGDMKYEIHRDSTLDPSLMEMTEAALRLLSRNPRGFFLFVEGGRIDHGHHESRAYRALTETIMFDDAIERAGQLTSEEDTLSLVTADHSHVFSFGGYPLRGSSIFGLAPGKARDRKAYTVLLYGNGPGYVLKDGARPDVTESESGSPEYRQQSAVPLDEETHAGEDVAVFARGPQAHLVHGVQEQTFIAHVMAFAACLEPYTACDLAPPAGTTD

This data set has as its target AP heterodimer (IAP/PLAP) on LoVo cells (human) (UniProt P09923+P05187). The experiment in a line: flow cytometry. Particulars: 4 C, apparent Kd, PBS pH 7.4 (about 137 mM NaCl) with 5 mM MgCl2, 4.5 g/L glucose, 1 mg/mL BSA, 0.1 mg/mL herring sperm DNA, 30 min at 4 C. For orientation: Flow cytometry measures light scatter and fluorescence of single cells or particles in a stream.
The term pKd denotes −log10 of the Kd, conventionally taken in molar units. For the sequence “CAAGGAATAGGGGTCGGTGTGGGTGGTTATGATTGGCTTCCTTG [BG2]”, the pKd was 8.60.
In the case of “TAAAAAATAGGGGTCGGTGTGGGTGGTTATGATTGGCTTTTTTA [BG4]”, the pKd is 7.94.
TAGGGGTCGGTGTGGGTGGTTATGATTGGC [BG2c]: the pKd is 8.03.
